Tests used:
[1] = target: spike (S) protein of the authentic parental Omicron variant (B.1.1.529) of SARS-CoV-2 (SARS-CoV-2, B.1.1.529 (Omicron) variant) (UniProt P0DTC2); experiment: cell-based or functional assay
[2] = target: spike (S) protein of the BA.4/5 SARS-CoV-2 pseudovirus (SARS-CoV-2, Omicron subvariant BA.4/5) (UniProt P0DTC2); experiment: cell-based or functional assay

Q: Which results are given for “plant-made cilgavimab (pCilgavimab) (antibody)”?
A: neutralization of authentic B.1.1.529 (Omicron) virus, foci-forming assay, IC50 [1]: 2.23 µg/mL; neutralization of BA.4/5 pseudovirus, luciferase reporter assay, IC50 [2]: 0.102 µg/mL

Reference: patent publication US20240150441A1
